Assay results published in publication doi:10.64898/2025.12.10.693372.

Experiments:
[1] = target: SARS-CoV-2 Omicron LP.8.1 spike (S-6P) (SARS-CoV-2) (UniProt P0DTC2); test: cryo-EM structure
[2] = target: SARS-CoV-2 Omicron JD.1.1 spike (S-6P) (SARS-CoV-2) (UniProt P0DTC2); test: cryo-EM structure

Substance	stoichiometry N [1]	stoichiometry N [2]
SARS-CoV-2 Omicron LP.8.1 spike (S-6P) (from UniProt P0DTC2 14-1211) (natural protein)	3	–
SARS-CoV-2 Omicron JD.1.1 spike (S-6P) (from UniProt P0DTC2 14-1211) (natural protein)	–	3
